# Experimental data: patent US20240034757A1 (OXFORD UNIVERSITY INNOVATION, published 2024)
# Read-outs that look alike come from different tables or passages of the source.
# B1: P672_RHIPU (other)
# chain: VCEVSEQEGVGEDNATEDEDYEDFFKPVTCYFANSTVGPLRPPNCTVVCTNNTAWWNDTKSDGGHCYSEYRPEKRTHSREIYNCTIGVCGNGTCIANHTYADCW
# B2: P1209_AMBPA (other)
# chain: KTDTKNAAGELPPKVAIPGCEDPATTKAPLPDDPRYYGVTIDKDGCQRKVLGSSQRQQRQVQNGRKPGRKGRGRRPVFVDLKLTVDCKRKCNGTYSQLPDGEPCLVCDGEPYGRHRTIKGGCYQGNCSSGQCHRGERKVNCYIPKNITNNVLNSVNLAE
# B3: P943_IXORI (other)
# chain: RSKQPTASQSSKNSIKAEFCDTNCTQGTNGAWSGCSEGCFCVHVGNNTKGRCMKLSSDYDYTTQ
# B4: P1005_AMBMA (other)
# chain: EKDTPKNIPGCGDTGTTAAPPADNPKHFAVYTDKHGCTIKVIGTWMTKEDHSRLPVSLRRVRASSGRVMLPASCQKICNDTVKNFPEGTPCRLVTGDPIKGKNHIKDGCIRGYCSSGVCVSDKRNISCYVPPN
# B5: P1014_AMBCA (other)
# chain: DIIGGIPGCGDPTTTSAPEVPPKHFAVRTDKDGCTLMIIGTWMTTEDHNRLPPDIGEKRAPYGRVQLPASCKKNCHGKVKNLPNGTPCREVFGDPRRGRKHIKNGCTVGKCQSGLCVTDKRIISCYIPPNITDPIPTHGPWAE
# B6: P698_RHISA (other)
# chain: NEDDSSDYYDASPMNCSSMSVNSTMGWLSMNCTMSCNGTTFPLSNSTHCFHSYTNLTVQSRMETMTYNCSVGTCSNGTCVENGTTTTCW
# B7: P1006_AMBCA (other)
# chain: DTIGGIPGCGDPATTSAPEDQPKHYAVRTDKNGCKVMVIGTWMTKEDHNLLPPYISKERAPSGKVQLPASCKKNCHGKLKNLPNGTPCREVFGDLRRRRKHIKDGCKVGKCQNGLCVSEERIISCYLPPNITDPRPTHGPLAE
# B8: P1011_AMBTR (other)
# chain: EKDTPKNIPGCEDAGTTAAPPADNPKHYAVYTDKNGCTFKVIGTWMTKEDHRRLPVSLRRVRASSGRVKLPASCQKICKHSVKKFPEGTPCRLVTRDPIKGKNHIKNGCIRGYCSSGVCVSDNRSISCYVLPNNTELTSPSGSFAE
# B9: EVA1(P672 22-32) hybrid protein (designed binder)
# chain: EDDEDYEDFFKPVTCYFLVAENKTGYPTIVACKQDCNGTTETAPNGTRCFSIGDEGLRRMTANLPYDCPLGQCSNGDCIPKETYEVCYRRNWRDKKN
# How the values were obtained:
# [1] = molecular target: T1, CCL8_HUMAN (human, UniProt P80075 24-99); assay: cell-based or functional assay
# T1 sequence (looked up): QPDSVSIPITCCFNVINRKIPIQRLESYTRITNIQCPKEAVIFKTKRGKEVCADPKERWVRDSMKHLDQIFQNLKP
# [2] = molecular target: T1, CCL8_HUMAN; assay: cell-based or functional assay; remark: listed apart in the source
# [3] = molecular target: T2, CCL3_HUMAN (human, UniProt P10147 24-92); assay: cell-based or functional assay
# T2 sequence: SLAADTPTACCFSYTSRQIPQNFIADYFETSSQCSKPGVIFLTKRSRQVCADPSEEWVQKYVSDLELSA
# [4] = molecular target: CCL2-647 (human, UniProt P13500 24-99); assay: flow cytometry, inhibition of CCL2-647 binding to THP-1 cells
# [5] = molecular target: T3, CCL8-647 (human, UniProt P80075 24-99); assay: flow cytometry, inhibition of CCL8-647 binding to THP-1 cells
# T3 sequence (looked up): T1 sequence (looked up)
# [6] = molecular target: T4, CCL5_HUMAN (human, UniProt P13501 24-91); assay: yeast surface display FACS
# T4 sequence: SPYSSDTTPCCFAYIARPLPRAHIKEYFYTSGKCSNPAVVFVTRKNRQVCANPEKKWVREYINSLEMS
# [7] = molecular target: T5, CCL11_HUMAN (human, UniProt P51671 24-97); assay: yeast surface display FACS
# [8] = molecular target: T6, CCL18_HUMAN (human, UniProt P55774 21-89); assay: yeast surface display FACS
# T6 sequence: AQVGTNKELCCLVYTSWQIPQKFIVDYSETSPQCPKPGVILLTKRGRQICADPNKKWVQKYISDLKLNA
# [9] = molecular target: CXCL12_HUMAN (human, UniProt P48061 22-89); assay: yeast surface display FACS
# [10] = molecular target: T7, CCL1_HUMAN (human, UniProt P22362 24-96); assay: yeast surface display FACS
# T7 sequence: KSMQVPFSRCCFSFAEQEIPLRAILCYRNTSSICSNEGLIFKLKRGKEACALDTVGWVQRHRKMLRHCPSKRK
# [11] = molecular target: T8, CXCL1_HUMAN (human, UniProt P09341 35-107); assay: BLI
# T8 sequence: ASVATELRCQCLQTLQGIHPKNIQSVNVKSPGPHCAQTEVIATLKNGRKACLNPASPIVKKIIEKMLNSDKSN
# [12] = molecular target: T9, CXCL3_HUMAN (human, UniProt P19876 35-107); assay: BLI
# T9 sequence: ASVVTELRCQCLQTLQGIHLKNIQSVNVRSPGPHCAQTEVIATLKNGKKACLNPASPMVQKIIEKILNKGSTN
# [13] = molecular target: T4, CCL5_HUMAN; assay: yeast surface display FACS; remark: listed apart in the source
# [14] = molecular target: T5, CCL11_HUMAN; assay: yeast surface display FACS; remark: listed apart in the source
# [15] = molecular target: T10, CCL17_HUMAN (human, UniProt Q92583 24-94); assay: yeast surface display FACS
# T10 sequence: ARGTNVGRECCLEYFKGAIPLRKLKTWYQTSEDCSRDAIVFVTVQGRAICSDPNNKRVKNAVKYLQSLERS
# [16] = molecular target: T11, CCL19_HUMAN (human, UniProt Q99731 22-98); assay: yeast surface display FACS
# T11 sequence: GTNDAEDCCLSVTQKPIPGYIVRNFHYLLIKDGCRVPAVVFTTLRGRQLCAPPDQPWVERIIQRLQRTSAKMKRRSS
# [17] = molecular target: T7, CCL1_HUMAN; assay: yeast surface display FACS; remark: listed apart in the source
# [18] = molecular target: T2, CCL3_HUMAN; assay: yeast surface display FACS
# [19] = molecular target: T12, CCL4_HUMAN (human, UniProt P13236 24-92); assay: yeast surface display FACS
# T12 sequence: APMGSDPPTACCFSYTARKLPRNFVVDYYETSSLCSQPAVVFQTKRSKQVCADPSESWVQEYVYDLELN
# [20] = molecular target: T1, CCL8_HUMAN; assay: yeast surface display FACS
# [21] = molecular target: T13, CCL15_HUMAN (human, UniProt Q16663 22-113); assay: yeast surface display FACS
# T13 sequence: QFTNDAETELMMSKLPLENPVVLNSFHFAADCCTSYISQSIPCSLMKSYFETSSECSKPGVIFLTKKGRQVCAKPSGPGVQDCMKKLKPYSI
# [22] = molecular target: T14, CCL25_HUMAN (human, UniProt O15444 24-150); assay: yeast surface display FACS
# T14 sequence: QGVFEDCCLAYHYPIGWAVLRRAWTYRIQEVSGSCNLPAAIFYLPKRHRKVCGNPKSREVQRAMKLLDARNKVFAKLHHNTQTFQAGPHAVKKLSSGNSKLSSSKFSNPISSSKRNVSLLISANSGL
# [23] = molecular target: T6, CCL18_HUMAN; assay: yeast surface display FACS; remark: listed apart in the source
# [24] = molecular target: T1, CCL8_HUMAN; assay: BLI, dose titration
# T5 sequence (P51671 24-97 limits assumed): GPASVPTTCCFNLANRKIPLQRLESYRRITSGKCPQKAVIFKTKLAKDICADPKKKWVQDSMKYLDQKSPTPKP
# Sequence of CCL2-647 (P13500 24-99 limits assumed): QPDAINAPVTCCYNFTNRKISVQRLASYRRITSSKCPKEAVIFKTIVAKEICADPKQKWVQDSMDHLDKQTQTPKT
# Sequence of CXCL12_HUMAN (P48061 22-89 limits assumed): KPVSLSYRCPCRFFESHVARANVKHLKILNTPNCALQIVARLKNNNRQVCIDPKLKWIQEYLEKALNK
binder,measurement,setting,value
B1,"IC50, CCL8 induced THP-1 cell migration",[1],3 nM
same,"IC50, THP1 cell migration",[2],2.37 nM
same,"IC50, THP1 cell migration",[3],5.74 nM
same,IC50,[4],21 nM
same,IC50,[5],21 nM
B2,binding result,[6],binds
same,binding result,[7],binds
same,binding result,[8],binds
same,binding result,[9],binds
same,binding result,[10],binds
B3,Kd,[11],540 nM
same,Kd,[12],270 nM
B4,binding result,[13],binds
same,binding result,[14],binds
same,binding result,[15],binds
same,binding result,[16],binds
same,binding result,[17],binds
same,binding result,[18],binds
B5,binding result,[19],binds
B6,binding result,[13],binds
same,binding result,[20],binds
B7,binding result,[13],binds
same,binding result,[21],binds
same,binding result,[16],binds
same,binding result,[22],binds
B8,binding result,[13],binds
same,binding result,[14],binds
same,binding result,[15],binds
same,binding result,[23],binds
same,binding result,[22],binds
B9,Kd,[24],490 nM
